Test results reported in the supplement of paper PMC9170038.

Tested on: MS2 coat protein
Experiment: apparent KD of MS2 coat protein; designed switch direction (-1 OFF switch, 1 ON switch): -1; higher = weaker reporter binding
Method in brief: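 The reported apparent KD is a per-design median over clusters, from curve fits of normalised cluster fluorescence. Protein titrations used SNAP-549-labelled MS2 coat protein, doubled from 0.7 or 1.5 nM to 3 µM, in Tris-HCl pH 7.5 buffer with KCl, MgCl2, BSA, DTT, tRNA and Tween-20, with no input, 200 uM small-molecule ligand, or an oligonucleotide input. The RNA switches were transcribed on Illumina chips by stalled E. coli RNA polymerase.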

[1] = input ligand: microRNA oligo, concentration not stated
[2] = Eterna round: R95, input ligand: FMN 200 uM
[3] = Eterna round: R95, input ligand: microRNA oligo, concentration not stated
[4] = Eterna round: R95, input ligand: none

| Sequence | apparent KD of MS2 coat protein (input ligand: FMN 200 uM) | apparent KD of MS2 coat protein [1] | apparent KD of MS2 coat protein (input ligand: none) | apparent KD of MS2 coat protein [2] | apparent KD of MS2 coat protein [3] | apparent KD of MS2 coat protein [4] |
| --- | --- | --- | --- | --- | --- | --- |
| UACAUGAGGAUCACCCAUGUUUUGUCGUGUAUGGUAUUUAUCUAGGAUAUCAGUUUAUUUAUUUAUGAGAAGGAGAAUAUUAAU [JMF's solution 7] (Eterna round: R96, puzzle: Exclusion NG 3) | 28 nM | 22.4 nM | 32.7 nM |  |  |  |
| CCCACAAGCUUUUUGCUCGACAUGAGGAUCACCCAUGUAAAAUGGGUAAAUUUAAAUUUAAAUUUAUUUAAAUUGGG [-18.1, -41.9 kcal, A 34%] (Eterna round: R97, puzzle: Sensor, turn-off variant 1) | 80.9 nM |  | 102 nM |  |  |  |
| AGCUGUGGCCGAGGAUAUCACAUGAGGAUCACCCAUGUACAUGAUUAAGCCUGGUAACAGGCUCAUGAGAAGGCGGUCUCAGCA [Eli eng2 - 014] (Eterna round: R96, puzzle: Exclusion NG 2) | 12 nM | 13.1 nM | 20.6 nM |  |  |  |
| CGGCUACGAUGAGGAUAUACGCACAUGAGGAUCACCCAUGUAAAUCACGGGUAAAGAUCGCCAUCGUAGAAGGCAUAAGGGCCC [Orsole] (Eterna round: R96, puzzle: Exclusion NG 2) | 80.3 nM | 49.6 nM | 80.2 nM |  |  |  |
| ACCUCUGCUGAGGAUAUCCUUGCGGAAGAAGGAGGAGAAGGCAGAACAUGAGGAUCACCCAUGUGGGAACAACG [Eternabot (Original) Solution 37] (Eterna round: R97, puzzle: Exclusion 6) | 182 nM |  | 83.8 nM |  |  |  |
| ACUUACUGAGGAUAUACAUAGAUUUACAUGAGGAUCACCCAUGUUCCUCUAAGUAUAUAUGUAGAAGGCAGAAGAU [Mat - Exclusion 5 - JL Mod - D39] (Eterna round: R97, puzzle: Exclusion 5) | 202 nM |  | 116 nM |  |  |  |
| GCCGUAAAUGUGAGGAUAUACCUAUGGAUACAUAGGUAGAAGGCACAUGAGGAUCACCCAUGUCCUUAAUCGGC [Eli BMX r4m3] (Eterna round: R97, puzzle: Brourd's mod of Exclusion 4) | 730 nM |  | 409 nM |  |  |  |
| AGUACUAACACGAAAGUGUUAGUAAAAUAAGCUUGUGGUACAUGAGGAUCACCCAUGUCCUCAUAAGCUCGUCUUAU [Mat - Sensor v3 - Turn-off var 2 - D42] (puzzle: Sensor v3, turn-off variant 2) |  |  |  | 21.6 nM | 78.8 nM | 20.6 nM |
| CCCAAGUCAGGAUAUGGAACACAGAGACAUCUCUGUGCCCACCAGAAGGGACAUGAGGAUCACCCAUGUGAUGA [Soesat] (puzzle: Exclusion 4) |  |  |  |  | 56.6 nM |  |
| AGCUGUGGCCGAGGAUAUCCACAUGAGGAUCACCCAUGUGAAUAGGGAAUUAACCCAUAACCGUGGGAGAAGGCGGUCUCAGCA [Eli eng2 - 049] (Eterna round: R96, puzzle: Exclusion NG 2) | 55.1 nM | 48.6 nM | 82.1 nM |  |  |  |
| GGGCUGUCAGGAUAUUCGAGUUCGAGUGAAAGCUUGAGCUUGAAGAAGGGACAUGAGGAUCACCCAUGUGGCCC [-32.1, -31.1 kcal, A 26%, 1bis-0] (Eterna round: R97, puzzle: Exclusion 4) | 30.5 nM |  | 31.9 nM |  |  |  |
| ACAUGAGGAUCACCCAUGUUUGGCUGGUUUUCUCCGGCUGUCGAGGAUAUAGUCCGGUAUCCGCGCUAGAAGGUGAGGGUUGGC [Aenatbe mod 4] (Eterna round: R96, puzzle: Exclusion NG 3) | 22.5 nM | 14.2 nM | 22.8 nM |  |  |  |
| GAGAAGGUAGGAUAUACGAAUAAAUAGGGUAGUAAGAAGACACAUGAGGAUCACCCAUGUAGAAGGACCAAGAG [Mat - Exclusion 2 - Mod of my Tesla design - D37] (puzzle: Exclusion 2) |  |  |  | 34.6 nM | 19.2 nM | 21.8 nM |
